Assay results reported in patent US9316588B2, “Bioassay method for detecting physiologically active substance” (OTSUKA PHARMACEUTICAL CO., LTD., priority 2010, dated 2016).

Key:
Assay type in all cases: cell-based
[1] = biological target: T1, human GLP-1 receptor (Homo sapiens, UniProt P43220, L260F); assay: Aequorin luminescence in frozen CHO cell lines expressing human GLP-1 receptor, modified CNG channel and modified aequorin; details: even at a concentration 1 million times higher compared with the active forms of GLP-1; FIG. 24
T1 construct: The human GLP-1 receptor (GLP-1R) cDNA cloned in pUC18 was recloned into a pCIneo vector to prepare pCIneoGLP-1R; expressed in transfected cells; host or cells: CHO cell lines, transient transfection with FuGENE6, then frozen
Method: 1 ml (3×10^6 cells/ml) of the frozen cells prepared in 1 was thawed in a warm bath and suspended in 10 mL of a washing buffer.
(§1) 1 ml (3×10^6 cells/ml) of the frozen cells prepared in 1 was thawed in a warm bath and suspended in 10 mL of a washing buffer. The suspension was centrifuged at 1000 rpm for 5 minutes. 12 mL of a culture buffer was added to the obtained precipitate, and 6 μL of 4 mM ViviRen was added thereto.

[2] = biological target: T1, human GLP-1 receptor; assay: GLP-1 antagonist activity in CHO cells expressing human GLP-1 receptor, GLP-1 added after culture; details: 3 hours culture, then 10^-11 M GLP-1; FIG. 27
Method: as §1, with “Next, the activity of a GLP-1 antagonist was measured. 1 ml” for “1 ml”, “added thereto. The mixture was seeded at 90 μL/well into a 96-well plate.” for “added thereto.”
Exendin-4 (9-39) was added thereto at 10 μL/well, and the cells were cultured for 3 hours. 10^−11 M GLP-1 was added thereto at 10 μL/well, and the amount of luminescence was measured using a luminometer.

[3] = biological target: T2, human V2R (Homo sapiens, UniProt P30518); assay: Detection of AVP and V2R antagonist by desensitization (calcium-containing medium, addition of AVP, then forskolin)
T2 construct: The human vasopressin receptor isoform 2 (V2R) cDNA cloned in pUC18 was recloned into a pEF2 vector to prepare pEFhV2R; expressed in transfected cells; host or cells: CHO cells, transient transfection with FuGENE6, then frozen
Text: This method utilizes the desensitization of the cAMP dependent calcium channel to detect the activity of a V2R antagonist. […] In this state, the addition of forskolin that activates adenylate cyclase forms cAMP, which in turn activates the cAMP dependent calcium channel (e.g., CNG calcium). Thus, the calcium sensitive protein emits luminescence. […] In this state, the subsequent addition of […] desensitizes the once activated cAMP dependent calcium channel, which is no longer activated by the addition of forskolin.
as §1, with “thereto. The mixture was seeded at 50 μL/well into a 96-well plate. […] Subsequently, 10^−4 M forskolin was further added thereto at 50 μL/well, and the amount of luminescence was measured using a luminometer (FIG. 16).” for “thereto.”

T1 sequence (P43220 24-463 L260F): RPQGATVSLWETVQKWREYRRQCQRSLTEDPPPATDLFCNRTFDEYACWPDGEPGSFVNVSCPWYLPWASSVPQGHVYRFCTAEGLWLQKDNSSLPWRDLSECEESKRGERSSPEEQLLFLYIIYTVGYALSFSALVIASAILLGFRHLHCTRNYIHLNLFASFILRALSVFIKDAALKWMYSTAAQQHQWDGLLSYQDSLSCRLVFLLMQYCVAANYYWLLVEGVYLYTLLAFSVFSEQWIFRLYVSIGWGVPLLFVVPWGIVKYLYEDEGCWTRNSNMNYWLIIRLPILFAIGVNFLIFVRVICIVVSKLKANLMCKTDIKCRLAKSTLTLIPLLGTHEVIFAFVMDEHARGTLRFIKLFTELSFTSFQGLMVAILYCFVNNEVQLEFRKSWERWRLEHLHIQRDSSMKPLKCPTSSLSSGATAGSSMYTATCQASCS
T2 sequence (P30518 1-309 isoform P30518-2): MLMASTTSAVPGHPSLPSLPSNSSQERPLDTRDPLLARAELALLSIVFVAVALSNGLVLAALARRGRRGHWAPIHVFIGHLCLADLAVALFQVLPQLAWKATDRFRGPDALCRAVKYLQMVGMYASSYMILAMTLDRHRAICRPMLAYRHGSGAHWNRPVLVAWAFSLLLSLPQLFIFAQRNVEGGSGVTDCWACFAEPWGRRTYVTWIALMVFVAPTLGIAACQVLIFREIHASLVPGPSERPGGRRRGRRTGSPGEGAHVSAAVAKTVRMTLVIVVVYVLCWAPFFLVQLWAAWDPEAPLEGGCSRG

Compound | reactivity of the kit [1] | other results
GLP-2: incretin acting on other receptors | hardly reacted | –
exendin-4 (9-39): GLP-1 receptor antagonist | – | inhibition of the agonistic action of added GLP-1 [2]: inhibited the agonistic action of added GLP-1 in a concentration dependent manner
Cc1ccccc1C(=O)Nc1ccc(C(=O)N2CCCC(O)c3cc(Cl)ccc32)c(C)c1 (stereo not drawn) [OPC-41061] | – | luminescence of forskolin after antagonist and AVP ([3]; 10^-7 M AVP, then 10^-4 M forskolin, FIG. 16): the luminescence of forskolin was detected in a concentration dependent manner; inhibition of the action of added AVP (amount of luminescence) ([3]; cells cultured 3 hours with compound in calcium-containing medium, then 10^-7 M AVP, FIG. 14): inhibited the action of added AVP in a concentration dependent manner
GLP-1 (9-36 amide) | hardly reacted | –
GIP: incretin acting on other receptors | hardly reacted | –
